Values of other authors, collected in paper PMC2574613.

Molecular target: glycoprotein Ibα (Homo sapiens) (UniProt P07359)
Sequence (P07359 17-652): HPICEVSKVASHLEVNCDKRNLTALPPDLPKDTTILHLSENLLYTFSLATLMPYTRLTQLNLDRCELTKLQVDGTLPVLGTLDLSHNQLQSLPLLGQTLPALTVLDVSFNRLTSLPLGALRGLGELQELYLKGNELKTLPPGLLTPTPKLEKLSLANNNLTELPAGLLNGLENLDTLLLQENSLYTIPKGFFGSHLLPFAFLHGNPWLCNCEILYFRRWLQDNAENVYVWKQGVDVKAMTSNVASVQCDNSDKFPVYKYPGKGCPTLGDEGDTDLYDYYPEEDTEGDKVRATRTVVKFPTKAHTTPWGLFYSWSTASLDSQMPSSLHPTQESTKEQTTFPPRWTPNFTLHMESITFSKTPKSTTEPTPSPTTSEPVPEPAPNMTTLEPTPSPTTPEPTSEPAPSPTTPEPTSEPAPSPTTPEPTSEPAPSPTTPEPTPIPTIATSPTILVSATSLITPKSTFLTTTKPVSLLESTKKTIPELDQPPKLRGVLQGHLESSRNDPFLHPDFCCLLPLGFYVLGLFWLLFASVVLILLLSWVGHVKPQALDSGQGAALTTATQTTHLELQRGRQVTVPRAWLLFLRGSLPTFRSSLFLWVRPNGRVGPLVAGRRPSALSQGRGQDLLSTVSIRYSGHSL

GspB N-terminal basic region, sequence (Q939N5 237-603): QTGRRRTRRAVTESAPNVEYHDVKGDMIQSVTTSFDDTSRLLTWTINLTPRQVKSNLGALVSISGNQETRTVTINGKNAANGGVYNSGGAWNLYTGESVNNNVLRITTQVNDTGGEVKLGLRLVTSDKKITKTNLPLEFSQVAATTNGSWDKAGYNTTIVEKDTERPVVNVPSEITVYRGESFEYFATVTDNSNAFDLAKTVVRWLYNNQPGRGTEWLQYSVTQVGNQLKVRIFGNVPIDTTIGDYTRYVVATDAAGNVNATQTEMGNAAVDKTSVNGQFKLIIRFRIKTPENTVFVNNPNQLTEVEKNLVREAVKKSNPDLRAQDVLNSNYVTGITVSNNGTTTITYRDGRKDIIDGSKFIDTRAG

GspB N-terminal basic region (from UniProt Q939N5)
Kd: 0.0238 µM
